Source: US20230399641A1 (SHANGHAITECH UNIVERSITY, published 2023)

Target: extracellular protease domain of wildtype human ACE2 (residues 19-615) (human, UniProt Q9BYF1 19-615)
Sequence (Q9BYF1 19-615): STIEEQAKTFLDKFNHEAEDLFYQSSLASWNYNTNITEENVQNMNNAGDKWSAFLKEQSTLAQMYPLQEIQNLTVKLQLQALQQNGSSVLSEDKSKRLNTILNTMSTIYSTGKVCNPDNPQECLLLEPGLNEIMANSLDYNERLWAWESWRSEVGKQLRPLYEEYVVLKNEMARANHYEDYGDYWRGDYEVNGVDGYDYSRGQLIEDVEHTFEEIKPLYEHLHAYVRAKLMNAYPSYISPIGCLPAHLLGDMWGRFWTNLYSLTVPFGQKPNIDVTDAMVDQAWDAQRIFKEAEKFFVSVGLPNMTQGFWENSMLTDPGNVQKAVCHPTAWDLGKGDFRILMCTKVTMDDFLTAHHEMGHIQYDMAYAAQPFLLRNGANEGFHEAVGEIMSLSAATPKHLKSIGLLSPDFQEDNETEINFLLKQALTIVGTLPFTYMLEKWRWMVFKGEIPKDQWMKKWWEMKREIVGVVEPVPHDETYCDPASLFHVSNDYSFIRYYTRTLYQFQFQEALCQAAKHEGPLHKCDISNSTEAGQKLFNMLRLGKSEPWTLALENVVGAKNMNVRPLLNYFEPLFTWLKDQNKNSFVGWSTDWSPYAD

B1: receptor binding domain (RBD) of HCoV-NL63 spike (residues 481-616) (ligand)
chain: QHTDINFTATASFGGSCYVCKPHQVNISLNGNTSVCVRTSHFSIRYIYNRVKSGSPGDSSWHIYLKSGTCPFSFSKLNNFQKFKTICFSTVEVPGSCNFPLEATWHYTSYTIVGALYVTWSEGNSITGVPYPVSGI
  Kd: 430 nM
